Data: patent publication US20080118529

T1: human β2-Glycoprotein I pre-incubated with cardiolipin vesicles (CL-β2gpi), P02749
T1 chain: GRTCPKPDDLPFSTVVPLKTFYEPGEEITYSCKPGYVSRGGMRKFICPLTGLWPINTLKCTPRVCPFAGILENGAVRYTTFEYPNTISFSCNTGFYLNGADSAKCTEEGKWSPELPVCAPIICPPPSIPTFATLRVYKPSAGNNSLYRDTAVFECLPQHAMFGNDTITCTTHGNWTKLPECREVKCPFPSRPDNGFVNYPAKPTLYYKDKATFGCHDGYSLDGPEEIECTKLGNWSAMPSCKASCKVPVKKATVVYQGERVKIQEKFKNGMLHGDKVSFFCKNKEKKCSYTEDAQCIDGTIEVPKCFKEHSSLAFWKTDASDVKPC

T2: Ovalbumin (chicken egg albumin, OVA, Sigma A5503), carefully dissolved, P01012
T2 chain: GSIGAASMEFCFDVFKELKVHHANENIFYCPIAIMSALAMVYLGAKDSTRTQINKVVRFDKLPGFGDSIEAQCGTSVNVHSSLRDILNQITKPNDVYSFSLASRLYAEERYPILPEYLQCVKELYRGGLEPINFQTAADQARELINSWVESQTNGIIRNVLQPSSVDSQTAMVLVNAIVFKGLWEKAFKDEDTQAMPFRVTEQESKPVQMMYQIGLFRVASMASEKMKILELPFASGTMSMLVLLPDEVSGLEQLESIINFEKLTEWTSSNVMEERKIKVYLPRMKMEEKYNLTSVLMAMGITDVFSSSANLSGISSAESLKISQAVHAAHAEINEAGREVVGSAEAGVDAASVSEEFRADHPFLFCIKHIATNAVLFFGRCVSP

T3: recombinant human β2-glycoprotein I (made in insect cells), P02749
T3 chain: T1 chain

T4: β2-glycoprotein I purified from fresh human plasma, P02749
T4 chain: T1 chain

T5: Amyloid-like misfolded OVA (DOVA), obtained by cyclic thermal misfolding, P01012
T5 chain: T2 chain

T6: mouse non-amyloidogenic IAPP (20-29) core
T6 chain: SNNLGPVLPP

T7: non-amyloid fragment FP10 of human fibrin α-chain (148-157)
T7 chain: KRLEVDIDIK

T8: amyloid fibrin peptide FP13 K157G, P02671
T8 chain: KVQHIQLLQGNVR

T9: laminin α1-chain (2097-2108) amyloid core peptide
T9 chain: AASIKVAVSADR

T10: amyloid fragment of transthyretin
T10 chain: YTIAALLSPYS

B1: Tissue-type plasminogen activator (tPA, Actilyse, Boehringer-Ingelheim) (protein)
chain: SYQVICRDEKTQMIYQQHQSWLRPVLRSNRVEYCWCNSGRAQCHSVPVKSCSEPRCFNGGTCQQALYFSDFVCQCPEGFAGKCCEIDTRATCYEDQGISYRGTWSTAESGAECTNWNSSALAQKPYSGRRPDAIRLGLGNHNYCRNPDRDSKPWCYVFKAGKYSSEFCSTPACSEGNSDCYFGNGSAYRGTHSLTESGASCLPWNSMILIGKVYTAQNPSAQALGLGKHNYCRNPDGDAKPWCHVLKNRRLTWEYCDVPSCSTCGLRQYSQPQFRIKGGLFADIASHPWQAAIFAKHRRSPGERFLCGGILISSCWILSAAHCFQERFPPHHLTVILGRTYRVVPGEEEQKFEVEKYIVHKEFDDDTYDNDIALLQLKSDSSRCAQESSVVRTVCLPPADLQLPDWTECELSGYGKHEALSPFYSERLKEAHVRLYPSSRCTSQHLLNRTVTDNMLCAGDTRSGGPQANLHDACQGDSGGPLVCLNDGRMTLVGIISWGLGCGQKDVPGVYTKVTNYLDWIRDNMRP
B2: human factor XII from plasma (Calbiochem, #233490) (protein)
chain: IPPWEAPKEHKYKAEEHTVVLTVTGEPCHFPFQYHRQLYHKCTHKGRPGPQPWCATTPNFDQDQRWGYCLEPKKVKDHCSKHSPCQKGGTCVNMPSGPHCLCPQHLTGNHCQKEKCFEPQLLRFFHKNEIWYRTEQAAVARCQCKGPDAHCQRLASQACRTNPCLHGGRCLEVEGHRLCHCPVGYTGAFCDVDTKASCYDGRGLSYRGLARTTLSGAPCQPWASEATYRNVTAEQARNWGLGGHAFCRNPDNDIRPWCFVLNRDRLSWEYCDLAQCQTPTQAAPPTPVSPRLHVPLMPAQPAPPKPQPTTRTPPQSQTPGALPAKREQPPSLTRNGPLSCGQRLRKSLSSMTRVVGGLVALRGAHPYIAALYWGHSFCAGSLIAPCWVLTAAHCLQDRPAPEDLTVVLGQERRNHSCEPCQTLAVRSYRLHEAFSPVSYQHDLALLRLQEDADGSCALLSPYVQPVCLPSGAARPSETTLCQVAGWGHQFEGAEEYASFLQEAQVPFLSLERCSAPDVHGSSILPGMLCAGFLEGGTDACQGDSGGPLVCEDQAAERRLTLQGIISWGSGCGDRNKPGVYTDVAYYLAWIREHTVS

Key:
[1] = target: native human glucagon (freshly dissolved), P01275
Chain of native human glucagon (freshly dissolved), P01275 (P01275 53-81): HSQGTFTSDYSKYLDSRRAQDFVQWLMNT

[2] = target: T1, human β2-Glycoprotein I pre-incubated …
[3] = target: T2, Ovalbumin (chicken egg albumin, OVA, …)
[4] = target: T3, recombinant human β2-glycoprotein I …
[5] = target: T4, β2-glycoprotein I purified from fresh …
[6] = target: Native murine serum albumin (nMSA, #126674, Calbiochem), P07724
Chain of Native murine serum albumin (nMSA, #126674, Calbiochem), P07724 (P07724 25-608): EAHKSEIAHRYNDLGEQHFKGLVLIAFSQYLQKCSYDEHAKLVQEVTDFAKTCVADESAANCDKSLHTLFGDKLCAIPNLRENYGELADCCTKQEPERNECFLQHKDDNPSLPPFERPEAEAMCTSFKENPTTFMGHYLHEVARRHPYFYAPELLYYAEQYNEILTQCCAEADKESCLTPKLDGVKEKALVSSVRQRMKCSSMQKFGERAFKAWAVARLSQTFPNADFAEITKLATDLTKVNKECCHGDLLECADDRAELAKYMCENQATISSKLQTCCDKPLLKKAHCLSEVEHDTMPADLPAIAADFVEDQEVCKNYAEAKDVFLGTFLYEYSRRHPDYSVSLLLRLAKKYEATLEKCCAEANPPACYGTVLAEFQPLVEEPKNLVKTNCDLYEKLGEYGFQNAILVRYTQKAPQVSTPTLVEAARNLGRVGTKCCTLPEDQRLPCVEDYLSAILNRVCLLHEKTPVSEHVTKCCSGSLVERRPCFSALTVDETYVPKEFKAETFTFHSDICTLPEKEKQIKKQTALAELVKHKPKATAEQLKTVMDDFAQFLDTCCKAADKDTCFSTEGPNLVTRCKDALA

[7] = target: heat/acid-denatured human glucagon (Glucagen, Novo Nordisk), P01275
[8] = target: T5, Amyloid-like misfolded OVA (DOVA), …
[9] = target: T6, mouse non-amyloidogenic IAPP (20-29) …
[10] = target: Glycated haemoglobin (Hb-AGE)
[11] = target: T7, non-amyloid fragment FP10 of human …
[12] = target: T8, amyloid fibrin peptide FP13 K157G, …
[13] = target: albumin (ICN, 160069), P02769
Chain of albumin (ICN, 160069), P02769 (P02769 25-607): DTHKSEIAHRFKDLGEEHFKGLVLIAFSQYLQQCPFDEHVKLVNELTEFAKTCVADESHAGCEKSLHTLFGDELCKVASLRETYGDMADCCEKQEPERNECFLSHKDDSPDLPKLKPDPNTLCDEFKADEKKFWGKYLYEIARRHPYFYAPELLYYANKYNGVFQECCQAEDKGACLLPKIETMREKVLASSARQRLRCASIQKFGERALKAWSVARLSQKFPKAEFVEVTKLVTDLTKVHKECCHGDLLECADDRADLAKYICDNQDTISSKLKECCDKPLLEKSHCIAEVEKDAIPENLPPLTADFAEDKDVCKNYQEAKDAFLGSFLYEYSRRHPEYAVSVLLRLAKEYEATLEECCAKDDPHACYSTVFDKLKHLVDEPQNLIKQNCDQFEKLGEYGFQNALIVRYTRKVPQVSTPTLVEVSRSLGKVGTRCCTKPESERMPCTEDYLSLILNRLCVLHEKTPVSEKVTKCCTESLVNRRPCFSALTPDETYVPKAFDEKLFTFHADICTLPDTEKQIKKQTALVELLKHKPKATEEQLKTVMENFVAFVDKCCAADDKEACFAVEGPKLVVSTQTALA

[14] = target: T9, laminin α1-chain (2097-2108) amyloid …
[15] = target: recombinant human collagen XVIII fragment endostatin (Entremed, Inc), P39060
Chain of recombinant human collagen XVIII fragment endostatin (Entremed, Inc), P39060 (P39060 whole entry, looked up, the tested form may be a part): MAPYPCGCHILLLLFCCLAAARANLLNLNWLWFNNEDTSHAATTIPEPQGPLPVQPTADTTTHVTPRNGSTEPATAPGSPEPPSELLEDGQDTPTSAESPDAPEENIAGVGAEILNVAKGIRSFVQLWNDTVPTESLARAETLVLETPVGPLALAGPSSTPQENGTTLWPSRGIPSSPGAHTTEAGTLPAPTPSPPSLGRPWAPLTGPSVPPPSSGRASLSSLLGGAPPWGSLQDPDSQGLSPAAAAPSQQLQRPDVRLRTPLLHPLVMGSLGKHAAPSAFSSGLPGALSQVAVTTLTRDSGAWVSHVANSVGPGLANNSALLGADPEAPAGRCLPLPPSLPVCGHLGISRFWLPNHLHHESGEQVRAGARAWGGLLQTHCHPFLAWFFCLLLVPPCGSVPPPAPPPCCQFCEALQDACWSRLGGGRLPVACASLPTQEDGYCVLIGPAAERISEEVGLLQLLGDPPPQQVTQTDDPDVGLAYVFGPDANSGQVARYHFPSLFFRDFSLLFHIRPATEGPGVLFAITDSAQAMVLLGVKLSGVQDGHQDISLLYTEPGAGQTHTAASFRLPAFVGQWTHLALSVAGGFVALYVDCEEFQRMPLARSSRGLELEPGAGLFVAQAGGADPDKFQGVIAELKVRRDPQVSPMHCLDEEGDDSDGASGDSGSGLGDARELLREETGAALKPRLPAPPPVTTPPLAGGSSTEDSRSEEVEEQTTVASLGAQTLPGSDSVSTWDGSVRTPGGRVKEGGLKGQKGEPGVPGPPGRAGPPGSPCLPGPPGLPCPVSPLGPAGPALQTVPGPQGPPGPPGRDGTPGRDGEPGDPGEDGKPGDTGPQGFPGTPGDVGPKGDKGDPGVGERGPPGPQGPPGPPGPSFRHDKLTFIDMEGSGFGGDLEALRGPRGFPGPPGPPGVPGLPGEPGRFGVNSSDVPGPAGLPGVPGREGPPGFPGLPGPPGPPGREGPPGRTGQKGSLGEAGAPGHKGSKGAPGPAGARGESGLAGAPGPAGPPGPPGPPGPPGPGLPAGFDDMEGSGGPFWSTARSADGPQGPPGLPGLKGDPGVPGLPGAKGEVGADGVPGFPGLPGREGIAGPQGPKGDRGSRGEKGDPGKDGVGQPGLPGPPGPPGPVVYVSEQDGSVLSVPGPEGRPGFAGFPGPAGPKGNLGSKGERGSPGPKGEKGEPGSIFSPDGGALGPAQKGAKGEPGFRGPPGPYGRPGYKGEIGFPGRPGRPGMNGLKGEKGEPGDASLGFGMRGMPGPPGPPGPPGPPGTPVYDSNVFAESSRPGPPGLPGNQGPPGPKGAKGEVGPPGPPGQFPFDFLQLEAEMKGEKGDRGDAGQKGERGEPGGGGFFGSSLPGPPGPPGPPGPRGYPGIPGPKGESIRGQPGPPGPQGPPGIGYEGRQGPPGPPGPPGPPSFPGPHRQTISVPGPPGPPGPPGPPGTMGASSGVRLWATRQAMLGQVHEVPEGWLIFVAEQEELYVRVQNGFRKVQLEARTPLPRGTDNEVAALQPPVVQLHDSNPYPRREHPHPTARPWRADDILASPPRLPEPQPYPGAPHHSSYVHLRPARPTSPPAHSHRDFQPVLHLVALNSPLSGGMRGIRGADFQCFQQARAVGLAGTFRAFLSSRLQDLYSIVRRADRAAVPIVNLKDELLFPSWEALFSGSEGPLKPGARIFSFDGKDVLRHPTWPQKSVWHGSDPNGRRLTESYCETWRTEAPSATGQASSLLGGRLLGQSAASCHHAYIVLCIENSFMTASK

[16] = target: T10, amyloid fragment of transthyretin

| Protein | Plg-activation assay [1] | chromogenic tPA/plasminogen activation assay with a plasmin substrate [2] | tPA/plasminogen activation assay [3] | tPA-mediated conversion of Plg to plasmin (substrate S-2251) [4] | tPA-mediated conversion of Plg to plasmin (substrate S-2251) [5] | Plg-activation assay [6] | Plg-activation assay [7] | tPA/plasminogen activation assay [8] | activation of factor XII, detected by the conversion of Chromozym-PK [9] | auto-activation of purified factor XII, substrate S-2222 [10] | activation of factor XII, detected by the conversion of Chromozym-PK [11] | auto-activation of purified factor XII, substrate S-2222 [12] | factor XII and subsequent prekallikrein activity (Chromozym-PK) [13] | activation of factor XII, detected by the conversion of Chromozym-PK [14] | factor XII and subsequent prekallikrein activity (Chromozym-PK) [15] | activation of factor XII, detected by the conversion of Chromozym-PK [16] |
| --- | --- | --- | --- | --- | --- | --- | --- | --- | --- | --- | --- | --- | --- | --- | --- | --- |
| B1 | at high glucagon concentration, also native glucagon has some tPA activating potential | Exposure of human β2gpi to cardiolipin renders the mixture with tPA/plasminogen activating properties | OVA displays characteristics that are a hallmark for the presence of at least a fraction of the molecules with crossbeta structure, as shown by ... the enhanced activation of tPA and plasminogen | Recombinant β2GPI, but not β2GPI purified from fresh plasma stimulate tPA-mediated conversion of Plg to plasmin | Recombinant β2GPI, but not β2GPI purified from fresh plasma stimulate tPA-mediated conversion of Plg to plasmin | also native albumin enhanced ThT fluorescence to some extent, but this was not reflected by stimulation of tPA activation | In this way, a potent activator of tPA was obtained | After cyclic thermal misfolding, however, signals representative for crossbeta structure are far more pronounced with denatured OVA | – | – | – | – | – | – | – | – |
| B2 | – | – | – | – | – | – | – | – | non-amyloid controls fibrin fragment FP10 and non-amyloid murine islet amyloid polypeptide mIAPP do not activate factor XII | All three amyloid-like aggregates are able to induce factor XII auto-activation. FP13 K157G and Hb-AGE have a potency to induce auto-activation that is similar to the established surface activator DXS500k | non-amyloid controls fibrin fragment FP10 and non-amyloid murine islet amyloid polypeptide mIAPP do not activate factor XII | All three amyloid-like aggregates are able to induce factor XII auto-activation. FP13 K157G and Hb-AGE have a potency to induce auto-activation that is similar to the established surface activator DXS500k | Neither albumin or endostatin alone, nor kaolin or DXS500k alone are efficient activators of factor XII, whereas combinations of adjuvant and protein cofactor results in factor XII and subsequent prekallikrein activity | cross-β structure conformation rich peptides laminin (LAM12) and transthyretin (TTR11) stimulate factor XII activation, to a similar extent as kaolin | Neither albumin or endostatin alone, nor kaolin or DXS500k alone are efficient activators of factor XII, whereas combinations of adjuvant and protein cofactor results in factor XII and subsequent prekallikrein activity | cross-β structure conformation rich peptides laminin (LAM12) and transthyretin (TTR11) stimulate factor XII activation, to a similar extent as kaolin |
